Measurements: patent publication US20120027782A1 (Bristol-Myers Squibb, published 2012)

T1: human PTK7, full length, on the cell surface (human, UniProt Q13308 31-1070)
T1 sequence: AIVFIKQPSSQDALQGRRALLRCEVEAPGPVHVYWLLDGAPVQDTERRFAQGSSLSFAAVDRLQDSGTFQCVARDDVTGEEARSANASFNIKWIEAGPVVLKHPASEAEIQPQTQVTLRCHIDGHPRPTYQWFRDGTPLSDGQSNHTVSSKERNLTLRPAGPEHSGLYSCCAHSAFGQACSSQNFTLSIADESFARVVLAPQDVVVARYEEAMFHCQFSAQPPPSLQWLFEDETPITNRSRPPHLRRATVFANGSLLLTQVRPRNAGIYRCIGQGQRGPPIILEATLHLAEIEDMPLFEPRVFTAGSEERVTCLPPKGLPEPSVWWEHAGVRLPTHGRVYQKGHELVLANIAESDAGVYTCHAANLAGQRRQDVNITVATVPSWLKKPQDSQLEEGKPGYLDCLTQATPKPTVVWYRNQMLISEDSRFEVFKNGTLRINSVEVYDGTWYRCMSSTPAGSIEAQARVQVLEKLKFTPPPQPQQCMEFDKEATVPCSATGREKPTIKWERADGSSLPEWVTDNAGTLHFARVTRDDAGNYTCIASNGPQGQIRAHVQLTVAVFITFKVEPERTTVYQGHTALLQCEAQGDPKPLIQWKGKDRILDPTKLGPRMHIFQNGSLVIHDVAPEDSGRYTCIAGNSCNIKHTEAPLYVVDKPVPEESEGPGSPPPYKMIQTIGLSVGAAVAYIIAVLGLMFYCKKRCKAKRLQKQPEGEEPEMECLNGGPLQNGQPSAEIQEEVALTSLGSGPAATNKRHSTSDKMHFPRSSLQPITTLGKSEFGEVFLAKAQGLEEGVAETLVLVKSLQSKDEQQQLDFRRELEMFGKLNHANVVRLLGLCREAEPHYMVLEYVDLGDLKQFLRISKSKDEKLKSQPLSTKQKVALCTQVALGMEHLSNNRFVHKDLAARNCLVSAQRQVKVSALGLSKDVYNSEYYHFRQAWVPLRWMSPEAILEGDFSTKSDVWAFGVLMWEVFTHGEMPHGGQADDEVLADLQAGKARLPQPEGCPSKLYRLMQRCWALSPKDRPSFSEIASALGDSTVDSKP

T2: recombinant extracellular domain of PTK7 (human, UniProt Q13308 31-704)
T2 construct: also called PTK7 extracellular domain
T2 sequence: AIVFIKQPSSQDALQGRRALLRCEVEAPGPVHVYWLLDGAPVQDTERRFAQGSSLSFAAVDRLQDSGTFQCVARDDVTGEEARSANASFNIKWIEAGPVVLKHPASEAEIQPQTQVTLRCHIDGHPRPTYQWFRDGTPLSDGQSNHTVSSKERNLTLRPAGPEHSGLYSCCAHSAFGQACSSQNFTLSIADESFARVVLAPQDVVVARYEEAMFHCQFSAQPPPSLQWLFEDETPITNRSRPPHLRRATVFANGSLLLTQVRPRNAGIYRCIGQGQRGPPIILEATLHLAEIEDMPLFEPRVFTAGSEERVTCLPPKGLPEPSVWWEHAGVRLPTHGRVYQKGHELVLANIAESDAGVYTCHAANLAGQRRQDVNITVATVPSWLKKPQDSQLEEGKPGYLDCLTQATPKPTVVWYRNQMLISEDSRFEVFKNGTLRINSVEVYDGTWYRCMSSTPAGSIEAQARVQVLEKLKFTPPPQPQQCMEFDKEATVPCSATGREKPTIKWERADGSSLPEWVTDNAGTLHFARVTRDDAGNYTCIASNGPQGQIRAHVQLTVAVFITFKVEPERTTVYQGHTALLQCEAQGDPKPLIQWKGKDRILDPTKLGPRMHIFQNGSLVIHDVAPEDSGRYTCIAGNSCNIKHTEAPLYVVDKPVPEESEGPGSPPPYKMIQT


Key:
[1] = target: T1, human PTK7, full length, on the cell …; assay: cell-based or functional assay
[2] = target: T2, recombinant extracellular domain of PTK7; assay: ELISA (legend of FIG. 15; members named in paragraph 547)
Procedure: The binding of anti-PTK7 antibodies was also assessed by standard ELISA to examine the specificity of binding for PTK7.
Recombinant extracellular domain of PTK7 was tested for binding against the anti-PTK7 human monoclonal antibodies 3G8, 4D5, 12C6 and 12C6a at different concentrations. Standard ELISA procedures were performed. The anti-PTK7 human monoclonal antibodies were added at a starting concentration of 10 μg/ml and serially diluted at a 1:2 dilution. Goat-anti-human IgG (kappa chain-specific) polyclonal antibody conjugated with horseradish peroxidase (HRP) was used as secondary antibody. Each of the anti-PTK7 human monoclonal antibodies 3G8, 4D5, 12C6 and 12C6a bound to PTK7.

[3] = target: T1, human PTK7, full length, on the cell …; assay: flow cytometry (MFI) on cancer cell lines that express cell surface PTK7, antibody at 10 ug/ml
Procedure: Anti-PTK7 antibodies were tested for binding to a variety of cancer cell lines by flow cytometry.
Binding of the 3G8, 12C6a, 4D5 and 12C6 anti-PTK7 human monoclonal antibodies to a panel of cancer cell lines was assessed by incubating cancer cell lines with anti-PTK7 human monoclonal antibodies at a concentration of 10 μg/ml. The cancer cell lines that were tested were A-431 (ATCC Acc No. CRL-1555), Wilms tumor cells G-401 (ATCC Acc No. CRL-1441), Saos-2 (ATCC Acc No. HTB-85), SKOV-3 (ATCC Acc No. HTB-77), PC3 (ATCC Acc No. CRL-1435), DMS 114 (ATCC Acc No. CRL-2066), ACHN (ATCC Ace No. CRL-1611), LNCaP (ATCC Acc No. CRL-1740), DU 145 (ATCC Acc No. HTB-81), LoVo (ATCC Acc No. CCL-229) and MIA PaCa-2 (ATCC Acc No. CRL-1420). An isotype control antibody was used as a negative control. The cells were washed and binding was detected with a FITC-labeled anti-human IgG Ab. Flow cytometric analyses were performed using a FACScan flow cytometry (Becton Dickinson, San Jose, Calif.). The anti-PTK7 monoclonal antibodies 3G8, 12C6a, 4D5 and 12C6 bound to the cancer cell lines A-431, Wilms tumor cells G-401, Saos-2, SKOV-3, PC3, DMS 114, ACHN, LNCaP, DU 145, LoVo and MIA PaCa-2, as measured by the mean fluorescent intensity (MFI) of staining.

[4] = target: T1, human PTK7, full length, on the cell …; assay: flow cytometry (MFI) on Wilms' tumor cell line G-401
Procedure: The nephroblastoma Wilms' tumor cell line G-401 (ATCC Acc No. CRL-1441) was tested for binding of the HuMAb anti-PTK7 human monoclonal antibodies 12C6 and 7C8 at different concentrations. Binding of the anti-PTK7 human monoclonal antibodies was assessed by incubating 1×10⁵ cells with antibody at a starting concentration of 30 μg/ml and serially diluting the antibody at a 1:10 dilution. The cells were washed and binding was detected with a PE-labeled anti-human IgG Ab. Flow cytometric analyses were performed using a FACScan flow cytometry (Becton Dickinson, San Jose, Calif.). The anti-PTK7 monoclonal antibodies 12C6 and 7C8 bound to the nephroblastoma Wilms' tumor cell line in a concentration dependent manner, as measured by the mean fluorescent intensity (MFI) of staining. The EC₅₀ values for the anti-PTK7 monoclonal antibodies 12C6 and 7C8 was 4.0 nM and 3.4 nM, respectively.

Binder | EC50 of the decrease in 3H-thymidine incorporation, Hum-Zap internalization assay, Wilms' tumor cells G-401 [1] [nM] | binding result [2] | binding result [3] | EC50 of the decrease in 3H-thymidine incorporation, Hum-Zap internalization assay, A-431 cells [1] [nM] | EC50 of the decrease in 3H-thymidine incorporation, Hum-Zap internalization assay, PC3 tumor cells [1] [nM] | EC50 [4] [nM]
anti-PTK7 human monoclonal antibody 12C6a (antibody, V domains shown, Same heavy chain variable region as 12C6, different light chain; Human IgG kappa from a hybridoma) VH: EVQLVQSGGGLVHPGGSLRLSCAGSGFTFSTYLMYWVRQAPGKTLEWVSAIGSGGDTYYADSVKGRFTISRDNAKNSLYLQMNSLRAEDMAVYYCARGLGYWGQGTLVTVSS VL: DIQMTQSPSSLSASVGDRVTITCRASQGISSWLAWYQQKPEKAPKSLIYAASSLQSGVPSRFSGSGSGTDFTLTISSLQPEDFATYYCQQYNSYPYTFGQGTKLEIK |  | binds | binds |  |  | 
anti-PTK7 human monoclonal antibody 4D5 (antibody, V domains shown) VH: QVQLVESGGGVVQPGRSLRLSCAASGFTFSSYAFHWVRQAPGKGLEWVAVISYDGSIKYYADSVKGRFTISRDNSKNTLYLQMNSLRAEDTAVYYCARTYYFDYWGQGTLVTVSS VL: EIVLTQSPDFQSVTPKEKVTITCRASQSIGSSLHWYQQKPDQSPKLLIKYASQSFSGVPSRFSGSGSGTDFTLTINSLEAEDAAAYYCHQSSSLPITFGQGTRLEIK | 0.3 |  |  |  |  | 

The next lines start with the values.

EC50 of the decrease in 3H-thymidine incorporation, Hum-Zap internalization assay, Wilms' tumor cells G-401 [1] [nM] | binding result [2] | binding result [3] | EC50 of the decrease in 3H-thymidine incorporation, Hum-Zap internalization assay, A-431 cells [1] [nM] | EC50 of the decrease in 3H-thymidine incorporation, Hum-Zap internalization assay, PC3 tumor cells [1] [nM] | EC50 [4] [nM] | Binder
0.6 |  |  |  |  |  | anti-PTK7 human monoclonal antibody 3G8 (antibody, V domains shown) VH: QVQLVESGGGVVQPGRSLRLSCAASGFIFSNYAMHWVRQAPGKGLEWVAVISYDGNNKYYADSVKGRFTISRDNSKNTLYLQMNSLRAEDTAVYYCAREVWSIDNWGQGTLVTVSS VL: DIQMTQSPSSLSASVGDRVTITCRASQGISSWLAWYQQKPEKAPKSLIYAASSLQSGVPSRFSGSGSGTDFTLTISSLQPEDFATYYCQQYNSYPRTFGQGTKVEIK
0.2 |  |  | 0.2 | 0.3 | 3.4 | anti-PTK7 human monoclonal antibody 7C8 (antibody, V domains shown, Human IgG kappa from a hybridoma) VH: QVQLVESGGGVVQPGRSLRLSCAASGFTFSSYGMHWVRQAPGKGLEWVAVIWDDGSNKYYVDSVKGRFTISRDNSKNTLYLQMNSLRAEDTAVYYCARDDYYGSGSFNSYYGTDVWGQGTTVTVSS VL: EIVLTQSPATLSLSPGERATLSCRASQSVSIYLAWYQQKPGQAPRLLIYDASNRATGIPARFSGSGSGTDFTLTISSLEPEDFAVYYCQQRSNWPPFTFGPGTKVDIK
0.2 |  |  | 0.2 | 0.3 | 4 | anti-PTK7 human monoclonal antibody 12C6 (antibody, V domains shown, Human IgG kappa from a hybridoma) VH: EVQLVQSGGGLVHPGGSLRLSCAGSGFTFSTYLMYWVRQAPGKTLEWVSAIGSGGDTYYADSVKGRFTISRDNAKNSLYLQMNSLRAEDMAVYYCARGLGYWGQGTLVTVSS VL: not shown
